Results published in patent US20250320293A1 (REGENECORE BIOTECH, published 2025).
Positions count from the first letter of the chain named.

T1: recombinant human TREM2 protein (amino acids 19 to 174) (human, UniProt Q9NZC2 19-174)
T1 chain: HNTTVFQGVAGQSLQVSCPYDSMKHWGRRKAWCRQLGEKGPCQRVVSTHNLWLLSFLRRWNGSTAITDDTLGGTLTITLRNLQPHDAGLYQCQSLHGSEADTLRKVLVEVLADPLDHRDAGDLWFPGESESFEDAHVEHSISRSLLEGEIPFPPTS

T2: recombinant human TREM2 protein (amino acids 19 to 174) (human, UniProt Q9NZC2 19-174)
T2 construct: range 19-174
T2 sequence (looked up): T1 chain

B1: Fc fusion antibody of single-domain antibody 2B5 (Fc fusion)
chain: ESGGGLVQPGGSLRLSCAASGFAFSNYVMHWYRQAPEKERELVALIGSQGGAYTNYAGSVKGRFTISRDNTKNMVYLQMNNLKPEDTAVYYCNVVYNGRPNWGQGTQVTVSS
notes: also called VHH-hFc; not shown: human IgG1 (vector RJK-V4-hFC1) or IgG4 (vector RJK-V4-3) hinge, CH2, CH3 with 6xHis tag; which of the two is told only
B2: Fc fusion antibody of single-domain antibody 1H1 (Fc fusion)
chain: ESGGGLVQPGGSLRLSCAASGRTFSSYVMGWFRQAPGKEREFVAAISWSGGITYYGDSVKGRFTISRDNAKNTVFLQMNSLKPEDTAVYYCASGSGSYYRGWEYDYWGQGTQVTVSS
notes: as for B1
B3: 12G12W-hFC1 (Fc fusion antibody of single-domain antibody 12G12W) (Fc fusion)
chain (part 1 of 2): ESGGGLVQAGESLRLSCAASGRTFTNYAMGWFRQAPGKEREFVAGVSWSGSSTDYADSVKGRFTISTDNAKNTVYLQMTSLKPEDTAVYICGVKYFGHSRGGYDYWGQGTQVTVSS
B4: Fc fusion antibody of single-domain antibody 10F10 (Fc fusion)
chain: B1 chain with S25G, L45I, A52T, G58D, T71A, N97I
notes: as for B1
B5: Fc fusion antibody of single-domain antibody 10E12 (Fc fusion)
chain: ESGGGLVQPGGSLRLSCAASGFTFSGYYMSWVRQVPGKARELVAGITRGGNTYYADSVKGRFTISRDNAKNTVYLQMNNLKPEDTTVYYCNARRATTYYWGQGTQVTVSS
notes: as for B1
B6: Fc fusion antibody of single-domain antibody 10B3 (Fc fusion)
chain: B3 chain (part 1 of 2) with M78I, T79N, S80N
notes: as for B1
B7: single-domain antibody 12G10 (VHH)
VHH: B1 chain with L45I, G58A, T71A, N97I
notes: Crude extract from E. coli (pMECS vector), detected through an HA tag
B8: single-domain antibody 2B5 (VHH)
VHH: B1 chain
notes: as for B7
B9: single-domain antibody 10F10 (VHH)
VHH: B1 chain with S25G, L45I, A52T, G58D, T71A, N97I
notes: as for B7
B10: single-domain antibody 10E12 (VHH)
VHH: B5 chain
notes: as for B7
B11: single-domain antibody 11H2 (VHH)
VHH: B5 chain with F22L, G26E
notes: as for B7
B12: single-domain antibody 12G12W (VHH)
VHH: B3 chain (part 1 of 2)
notes: as for B7
B13: single-domain antibody 10B3 (VHH)
VHH: B3 chain (part 1 of 2) with M78I, T79N, S80N
notes: as for B7
B14: single-domain antibody 11D3 (VHH)
VHH: B3 chain (part 1 of 2) with N26D
notes: as for B7
B15: single-domain antibody 1H1 (VHH)
VHH: B2 chain
notes: as for B7
B16: Fc fusion antibody of single-domain antibody 12G10 (Fc fusion)
chain: B1 chain with L45I, G58A, T71A, N97I
notes: as for B1
B17: 11H2-hFC4 (Fc fusion antibody of single-domain antibody 11H2) (Fc fusion)
chain (part 1 of 2): B5 chain with F22L, G26E
B18: Fc fusion antibody of single-domain antibody 11D3 (Fc fusion)
chain: B3 chain (part 1 of 2) with N26D
notes: as for B1

Target: T1, recombinant human TREM2 protein (amino …)
Test: ELISA

EC50 [nM] | Binder
0.201 | B1
0.38 | B2

Target: T1, recombinant human TREM2 protein (amino …)
Test: ELISA
Remark: another data set of the same source

EC50 [nM] | Binder
0.254 | B3

Target: T1, recombinant human TREM2 protein (amino …)
Test: ELISA
Remark: another data set of the same source

EC50 [nM] | Binder
0.265 | B4
0.293 | B5
0.242 | B6

These binders were tested against T2, recombinant human TREM2 protein (amino …) (assay: ELISA, crude VHH extract on coated TREM2, anti-HA-HRP; positive if OD450 more than five times the control).
Procedure: Crude antibodies were obtained by osmotic bursting. The TREM2 recombinant proteins were diluted in 100 mM NaHCO₃ of pH 8.3, respectively. An ELISA plate was then coated with 100 μg of the proteins and left at 4° C. overnight. 100 μL of the obtained crude antibody extract was transferred to the ELISA plate into which the antigen was added. The plate was incubated at room temperature for 1 h. The unbound antibody was washed away with phosphate buffered saline with Tween (PBST), and 100 μL of Mouse Anti-HA tag Antibody (HRP) (mouse anti-HA horseradish peroxidase-labeled antibody, Thermo Fisher) at 1:2000 dilution was added and incubated at room temperature for 1 h. The unbound antibody was washed away with PBST, and a horseradish peroxidase color development solution was added. After react at 37° C. for 15 min, a stopping solution was added. The absorbance value was read at the wavelength of 450 nm on a microplate reader.
When an optical density (OD) value of a sample well is more than five times greater than that of the control well, the sample well is identified as a positive clone well. The bacteria in the positive clone well were transferred to an LB medium containing 100 μg/mL ampicillin under shaking for plasmid extraction and sequencing.

binding result | Binder
binds | B7
binds | B8
binds | B9
binds | B10
binds | B11
binds | B12
binds | B13
binds | B14
binds | B15

Target: T1, recombinant human TREM2 protein (amino …)
Test: ELISA
Remark: another data set of the same source

EC50 [nM] | Binder
0.3 | B16
0.33 | B17
0.337 | B18

Each binder was assayed against T2, recombinant human TREM2 protein (amino …) (assay: ELISA, VHH-hFc titrated on coated TREM2 (1 ug/mL), HRP-goat anti-hIgG).

binding result | Binder
binds | B16
binds | B1
binds | B4
binds | B5
binds | B6
binds | B18
binds | B2
